We go through two molecules from paper PMC11931385, “Structural and functional analysis of cancer-associated missense variants in the retinoblastoma protein pocket domain” (The Journal of Biological Chemistry, 2025).

No end group written: not given here. TMR = tetramethyl rhodamine dye

Holding throughout (assay): fluorescence polarisation; 25 °C; unlabeled Rb^P titrated against 1.5 nM TMR-E2F1^TD or 7.5 nM TMR-E7^LxCxE; 25 mM Tris pH 8.0, 200 mM NaCl, 1 mM DTT, 0.1% Tween-20; 2 min incubation; quadratic fit; apparent Kd for the variants, Kd for WT
What all share (conditions): both partners purified
In general terms: Polarisation of emitted light reports the rotation of a fluorescent probe.

In one assay the target is T1, Rb^P R763T (human, UniProt P06400 380-788, R763T).
T1 construct: also called variant 75
T1 sequence (looked up): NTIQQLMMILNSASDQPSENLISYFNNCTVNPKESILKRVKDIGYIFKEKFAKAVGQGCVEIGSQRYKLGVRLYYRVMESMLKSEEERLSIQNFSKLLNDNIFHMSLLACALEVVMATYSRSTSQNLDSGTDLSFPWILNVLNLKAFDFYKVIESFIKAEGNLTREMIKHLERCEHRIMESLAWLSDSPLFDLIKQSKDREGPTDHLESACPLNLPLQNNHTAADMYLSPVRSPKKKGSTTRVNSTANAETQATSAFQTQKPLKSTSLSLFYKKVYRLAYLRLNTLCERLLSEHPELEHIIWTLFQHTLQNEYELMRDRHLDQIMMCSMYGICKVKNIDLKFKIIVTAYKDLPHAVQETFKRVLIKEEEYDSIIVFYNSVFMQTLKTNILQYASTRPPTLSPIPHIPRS

The target of a further assay is T2, Rb^P R621C (human, UniProt P06400 380-788, R621C).
T2 construct: also called variant 41
T2 sequence (looked up): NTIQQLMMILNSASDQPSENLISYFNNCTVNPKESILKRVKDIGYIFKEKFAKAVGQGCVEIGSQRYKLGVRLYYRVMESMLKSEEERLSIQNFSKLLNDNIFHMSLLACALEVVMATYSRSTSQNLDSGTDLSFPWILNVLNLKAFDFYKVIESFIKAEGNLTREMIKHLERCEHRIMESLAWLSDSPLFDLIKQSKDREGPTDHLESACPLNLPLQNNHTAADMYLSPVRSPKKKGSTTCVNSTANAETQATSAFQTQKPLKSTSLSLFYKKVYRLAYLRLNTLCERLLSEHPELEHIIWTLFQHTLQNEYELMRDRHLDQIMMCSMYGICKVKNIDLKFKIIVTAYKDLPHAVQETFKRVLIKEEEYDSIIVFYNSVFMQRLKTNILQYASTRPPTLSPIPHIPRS

Another assay has as its target T3, Rb^P R611S (human, UniProt P06400 380-788, R611S).
T3 construct: also called variant 38
T3 sequence (looked up): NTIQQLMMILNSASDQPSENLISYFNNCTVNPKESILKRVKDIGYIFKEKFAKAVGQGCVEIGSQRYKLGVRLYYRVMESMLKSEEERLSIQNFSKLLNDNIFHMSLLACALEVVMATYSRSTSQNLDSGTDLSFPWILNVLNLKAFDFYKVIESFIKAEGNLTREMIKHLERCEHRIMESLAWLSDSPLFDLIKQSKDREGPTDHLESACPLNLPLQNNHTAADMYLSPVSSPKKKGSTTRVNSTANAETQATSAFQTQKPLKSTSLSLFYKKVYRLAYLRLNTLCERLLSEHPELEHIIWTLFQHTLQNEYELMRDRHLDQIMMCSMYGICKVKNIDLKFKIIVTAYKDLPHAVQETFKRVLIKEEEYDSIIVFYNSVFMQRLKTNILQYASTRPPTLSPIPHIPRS

In the next assay the target is T4, Rb^P E693A (human, UniProt P06400 380-788, E693A).
T4 construct: also called variant 60
T4 sequence (looked up): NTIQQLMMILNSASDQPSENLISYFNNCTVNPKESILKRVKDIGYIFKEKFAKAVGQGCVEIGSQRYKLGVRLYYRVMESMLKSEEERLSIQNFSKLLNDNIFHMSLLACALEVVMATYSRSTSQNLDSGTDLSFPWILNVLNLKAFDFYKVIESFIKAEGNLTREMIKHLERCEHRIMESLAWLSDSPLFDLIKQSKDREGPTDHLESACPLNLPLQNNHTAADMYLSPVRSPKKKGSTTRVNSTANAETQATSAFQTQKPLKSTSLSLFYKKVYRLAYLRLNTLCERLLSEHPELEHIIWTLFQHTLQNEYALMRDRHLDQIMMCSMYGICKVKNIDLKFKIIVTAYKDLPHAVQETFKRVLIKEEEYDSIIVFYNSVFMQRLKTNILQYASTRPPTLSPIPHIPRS

A further assay has as its target T5, Rb^P T738I (human, UniProt P06400 380-788, T738I).
T5 construct: also called variant 67
T5 sequence (looked up): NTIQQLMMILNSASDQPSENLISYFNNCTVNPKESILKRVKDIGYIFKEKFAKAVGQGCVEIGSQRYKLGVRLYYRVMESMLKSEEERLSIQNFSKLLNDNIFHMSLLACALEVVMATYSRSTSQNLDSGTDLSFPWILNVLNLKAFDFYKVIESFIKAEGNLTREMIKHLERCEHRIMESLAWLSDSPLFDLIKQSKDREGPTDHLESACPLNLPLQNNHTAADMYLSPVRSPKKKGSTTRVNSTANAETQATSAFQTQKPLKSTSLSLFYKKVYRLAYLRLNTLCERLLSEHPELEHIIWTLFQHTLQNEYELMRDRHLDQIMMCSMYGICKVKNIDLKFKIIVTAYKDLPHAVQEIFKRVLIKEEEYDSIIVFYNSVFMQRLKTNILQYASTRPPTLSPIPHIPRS

B1: TMR-E2F1^TD, peptide of the E2F1 transactivation domain (peptide)
peptide: {TMR}-GEGIRDLFDCDFGDLTPLD
notes: also called E2F^TD; source: synthetic peptide, bought: GenScript
B1: the Kd was 37 nM with Rb^P R763T; 22 nM in the assay with Rb^P R621C; 15 nM in the assay with Rb^P R611S; 42 nM with Rb^P E693A; 60 nM in the assay with Rb^P T738I.

B2: TMR-E7^LxCxE, LxCxE peptide of the E7 oncoprotein from HPV (peptide)
peptide: DLYCYEQLN
modifications: also: TMR label, position not given here
notes: source: synthetic peptide, bought: GenScript
In the case of B2, the Kd worked out at 21 nM with Rb^P R763T; 12 nM with Rb^P R621C; 5 nM in the assay with Rb^P R611S; 7 nM with Rb^P E693A; 18 nM with Rb^P T738I.
